Laboratory results as given in patent publication US20090298079A1 (METHERESIS TRANSLATIONAL RESEARCH, published 2009).
One block for each binder: values may come before it.

How the values were obtained:
Sema-PSI = target: T1, Sema-PSI (UniProt P08581 25-562); assay: ELISA, receptor in solid phase, MYC-tagged ligand in liquid phase, anti-MYC detection
T1 construct: range 25-562; also called Sema-PSI FLAG.his; SP
Description: All engineered receptors and factors were collected from the conditioned medium of lentiviral vector-transduced […] human melanoma cells in the absence of serum. Factor purification was performed by immobilized-metal affinity chromatography as previously described in Michieli P. et al. (2002) Nat Biotechnol. 20(5), 488-495. Conversion of pro-HGF into active HGF was performed by incubating purified pro-HGF (maximal concentration 100 ng/μl) with 2-10% FBS (Sigma, St. Louis, Mo.) at 37° C. for 24 hours. Factor conversion was analyzed by Western blotting using anti-HGF antibodies (R&D Systems, Minneapolis, Minn.). […] Binding of engineered ligands to soluble receptors was measured by ELISA using FLAG-tagged soluble receptors in solid phase and MYC-tagged engineered ligands in liquid phase. […] Binding data were analyzed and fit using Prism software (Graph Pad Software, San Diego, Calif.).
(§1) To determine the affinity of each Met module for pro-HGF, HGF-α, HGF NK1 and HGF-β and to compare it with that for active HGF, engineered receptors were immobilized in solid phase and exposed to increasing concentrations of MYC-tagged ligands. […] Non-specific binding was determined using the kringle-containing protein angiostatin (AS) also tagged with a MYC epitope—in liquid phase. […] Binding of HGF-β to decoy Met (or to any other Met domain) was too low to be detected in this kind of assay. […]

Decoy Met = target: T2, Decoy Met (UniProt P08581 25-932); assay: ELISA, Decoy Met in solid phase, MYC-tagged ligand in liquid phase, anti-MYC detection
T2 construct: range 25-932; Soluble FLAG- and His-tagged receptor, purified from conditioned medium of transduced cells; also called decoy met FLAG.his; DM
Description: (§2) Factor purification was performed by immobilized-metal affinity chromatography as previously described in Michieli P. et al. (2002) Nat Biotechnol. 20(5), 488-495. Conversion of pro-HGF into active HGF was performed by incubating purified pro-HGF (maximal concentration 100 ng/μl) with 2-10% FBS (Sigma, St. Louis, Mo.) at 37° C. for 24 hours. Factor conversion was analyzed by Western blotting using anti-HGF antibodies (R&D Systems, Minneapolis, Minn.). Uncleavable HGF subjected to the same incubation with FBS was used as pro-HGF in all assays that compared active HGF with unprocessed HGF. Binding of engineered ligands to soluble receptors was measured by ELISA using FLAG-tagged soluble receptors in solid phase and MYC-tagged engineered ligands in liquid phase. […] Binding data were analyzed and fit using Prism software (Graph Pad Software, San Diego, Calif.).
as §1

IPT = target: T3, IPT (UniProt P08581 563-932); assay: ELISA, IPT in solid phase, MYC-tagged ligand in liquid phase, anti-MYC detection
T3 construct: range 563-932; also called IPT FLAG.his; soluble IPT
Description: as §2, §1

binding result (Sema-PSI): no binding
fold reduced affinity compared to active HGF (Decoy Met): 4 fold
B1: HGF-α (ligand)
chain: QRKRRNTIHEFKKSAKTTLIKIDPALKIKTKKVNTADQCANRCTRNKGLPFTCKAFVFDKARKQCLWFPFNSMSSGVKKEFGHEFDLYENKDYIRNCIIGKGRSYKGTVSITKSGIKCQPWSSMIPHEHSFLPSSYRGKDLQENYCRNPRGEEGGPWCFTSNPEVRYEVCDIPQCSEVECMTCNGESYRGLMDHTESGKICQRWDHQTPHRHKFLPERYPDKGFDDNYCRNPDGQPRPWCYTLDPHTRWEYCAIKTCADNTMNDTDVPLETTECIQGQGEGYRGTVNTIWNGIPCQRWDSQYPHEHDMTPENFKCKDLRENYCRNPDGSESPWCFTTDPNIRVGYCSQIPNCDMSHGQDCYRGNGKNYMGNLSQTRSGLTCSMWDKNMEDLHRHIFWEPDASKLNENYCRNPDDDAHGPWCYTGNPLIPWDYCPISRCEGDTEQKLISEEDLNHHHHHHH
notes: range 32-473; also called HGF α-chain; HGF-α MYC his

fold less tightly than active HGF (IPT): 10 fold
binding result (Sema-PSI): no binding
fold reduced affinity compared to active HGF (Decoy Met): 10 fold
B2: HGF NK1 (ligand)
chain: QRKRRNTIHEFKKSAKTTLIKIDPALKIKTKKVNTADQCANRCTRNKGLPFTCKAFVFDKARKQCLWFPFNSMSSGVKKEFGHEFDLYENKDYIRNCIIGKGRSYKGTVSITKSGIKCQPWSSMIPHEHSFLPSSYRGKDLQENYCRNPRGEEGGPWCFTSNPEVRYEVCDIPQEQKLISEEDLNHHHHHHH
notes: range 32-205; also called HGF-NK1 MYC his; monomeric NK1
